The subject of this data set is ATP. The data set is described as follows: switch fluorescence ratio, 500 uM ATP over buffer (Cy3 cluster intensity, sum of 5 cycles each) (fold (ratio)); higher = stronger signal-on switching upon ATP binding; sequences stand for … in TCGTCGGCAGCGTCAGATGTGTATAAGAGACAGTTTTTTTTTTTTTTTTTTTTTTTTT…TC. Particulars: aptamer strand: ATP DNA aptamer (quencher-CACCTGGGGGAGTATTGCGGAGGAAGG + anchor), 100 nM annealed; ATP concentration: 500 uM. In short, it runs like this:
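Per cluster, summed Cy3 intensity from the target cycles was divided by that from the buffer cycles to give the fluorescence ratio, then averaged per switch-domain sequence. Clusters outside 100-1000 RFU were excluded. The Cy3-labelled switching-strand clusters, on a modified Illumina MiSeq flow-cell, were annealed to 100 nM quencher-labelled ATP aptamer and imaged in selection buffer, then after 15 min with 500 uM ATP at 22 °C, for five cycles with NaOH stripping and re-annealing between them.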

± gives the standard deviation of the averaged measurements.
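Note: ATP exposure 15 min at 22 °C before imaging.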

Turning to CGATAGGTAC, the switch fluorescence ratio turned out to be 1.22 ± 0.027. As for TATGTCCAGT, the switch fluorescence ratio was determined as 1.0009 ± 0.00027. For the sequence TCATTAATTT, the switch fluorescence ratio amounted to 0.9873 ± 0.0086. Regarding TCGCGCTATT, the switch fluorescence ratio stood at 1.34 ± 0.39.

As for CGCAGAGCGA, the switch fluorescence ratio amounted to 1.02 ± 0.0082. Take TAGATTCTGT: the switch fluorescence ratio turned out to be 0.9951 ± 0.0032. AAATCGTGCA: the switch fluorescence ratio is 1 ± 0.03. As for TGAAGCTGGG, the figure is 1.07 ± 0.12; as for TTAGACTCTG, 1.05 ± 0.071.

With CAAGTAGGGA, the switch fluorescence ratio came out at 1.01 ± 0.057. Regarding GGGCCATATT, the switch fluorescence ratio came out at 0.963 ± 0.044. Take CCAGGTGTTG: the switch fluorescence ratio came out at 3.12 ± 0.44. As for TGAAAATCTT, the switch fluorescence ratio was found to be 1.18 ± 0.25.

As for ATATTGATGT, the switch fluorescence ratio was determined as 1.01 ± 0.037.

On to TGATAGTTGA, for which the switch fluorescence ratio worked out at 1.005 ± 0.0026. With GATCGAGTTA, the switch fluorescence ratio is 1.034 ± 0.0073. For the sequence ATTCGGGATA, the switch fluorescence ratio is 1 ± 0.02. As for GGCGATCGCG, the figure is 1.02 ± 0.04; as for GGACTACCGC, 1.14 ± 0.019. Then ATTGACTGAT, with 1.03 ± 0.044; and GAGGTTCAGT, with 0.989 ± 0.011; and TTGAACGAGC, with 0.99 ± 0.04. As for TTAGATGAAT, the figure is 1 ± 0.033; as for GGGGAAGGTG, 1.79 ± 1; as for ATGGAGAAAG, 1.02 ± 0.059. Take TAGATCATGC: the switch fluorescence ratio came to 0.994 ± 0.024. Turning to TTTTACCCAG, the switch fluorescence ratio was 1.11 ± 0.012. Turning to ATACGTAGTC, the switch fluorescence ratio came to 1.07 ± 0.014. Regarding CAGTACTCTT, the switch fluorescence ratio was found to be 1.01 ± 0.03. AGGGTTTGGG: the switch fluorescence ratio stood at 1.01 ± 0.038. On to GGTGGAGTCG, for which the switch fluorescence ratio amounted to 1.009 ± 0.0085.

In the case of TCAGGGACGA, the switch fluorescence ratio came to 1.02 ± 0.055. For TATTCTCATT, the switch fluorescence ratio was 0.977 ± 0.023. Then CTTTGGCCGG, with 1.011 ± 0.0087; and TATCGGGGTT, with 0.98 ± 0.046. On to ACAGGCCAGG, for which the switch fluorescence ratio came out at 1.23 ± 0.082. For TGGAGGGATG, the switch fluorescence ratio came to 1.01 ± 0.054. Then AACCTTGGGG, with 1.11 ± 0.079.

For GGGCGGGAAC, the switch fluorescence ratio amounted to 1.014 ± 0.0088.

For the sequence AATGCCTTTT, the switch fluorescence ratio stood at 1.04 ± 0.037.

CGTGGGAGGC: the switch fluorescence ratio amounted to 1.04 ± 0.077.

As for TTGGCTTAGG, the switch fluorescence ratio is 1.05 ± 0.096.

GGATCCACGG: the switch fluorescence ratio is 1.012 ± 0.005. Turning to CGGGACAGTG, the switch fluorescence ratio stood at 0.957 ± 0.024. As for TAGTTGACCC, the figure is 1.01 ± 0.053; as for CGGTGGGTGT, 0.931 ± 0.011; as for TGATATTTCT, 1 ± 0.011. As for GATGAAAGTG, the figure is 0.99 ± 0.025; as for TAAATATGGG, 0.999 ± 0.034; as for CAGTTCATCG, 1.03 ± 0.025. For CGAAGTTTGG, the switch fluorescence ratio is 1.02 ± 0.02. For TAGTTACTTT, the switch fluorescence ratio was 1.02 ± 0.021. For TGTGATATAT, the switch fluorescence ratio came to 0.9877 ± 0.0011.

Regarding TTTAGGGACT, the switch fluorescence ratio worked out at 1.02 ± 0.024. As for GCATCATATG, the switch fluorescence ratio stood at 0.998 ± 0.028. Regarding AATTTTCTGC, the switch fluorescence ratio is 1.01 ± 0.053.

Consider TAAAGGATAA, for which the switch fluorescence ratio came out at 0.9849 ± 0.0093. Turning to GATTCGGTTG, the switch fluorescence ratio is 0.9897 ± 0.0011. With AATTACGTAA, the switch fluorescence ratio worked out at 1.06 ± 0.012. For AACGTTAGGA, the switch fluorescence ratio is 1.03 ± 0.051. In the case of GTGTCTACAT, the switch fluorescence ratio came to 1.02 ± 0.014. Then TTTTTAAATA, with 0.986 ± 0.023; and TCGAGGGAGG, with 0.994 ± 0.075; and TGTGGGGGAG, with 1.03 ± 0.035.

For the sequence AAAACCGTGT, the switch fluorescence ratio came out at 1.05 ± 0.04. As for TACTTTGGTT, the figure is 0.975 ± 0.038; as for TTTTGGACCT, 1.3 ± 0.0093. Take TCTGGAGAGG: the switch fluorescence ratio is 1.01 ± 0.034.

In the case of CCTCACCCTT, the switch fluorescence ratio is 1.13 ± 0.013. As for GGTTTGGTTG, the figure is 1.003 ± 0.008; as for TAGCTTATAA, 1.08 ± 0.024; as for AGTAAGCGAC, 1.063 ± 0.0014. Take TTTGAGTTAA: the switch fluorescence ratio amounted to 0.994 ± 0.037.

ACTTTCGGGA: the switch fluorescence ratio worked out at 0.995 ± 0.011.

On to TATGGGTTTT, for which the switch fluorescence ratio came out at 1.02 ± 0.037. TTGGAATGGA: the switch fluorescence ratio amounted to 0.989 ± 0.029. Take ATTAGCTTCC: the switch fluorescence ratio worked out at 3 ± 0.33.

As to TGCTTTTGGG, the switch fluorescence ratio was determined as 0.976 ± 0.0021. As to AAAATGGTCA, the switch fluorescence ratio came to 1.0102 ± 0.00092. As to GACTTTTGTA, the switch fluorescence ratio was 0.9812 ± 0.0045. As for TGACGGTGGG, the switch fluorescence ratio stood at 0.962 ± 0.023.

Consider TAAATGTCAT, for which the switch fluorescence ratio is 0.998 ± 0.027. Consider GACTAAGACT, for which the switch fluorescence ratio is 1.01 ± 0.026. With GGCTGGCTGA, the switch fluorescence ratio amounted to 0.987 ± 0.045. On to TTGATTATTG, for which the switch fluorescence ratio was determined as 0.999 ± 0.032. For AGAATATGTT, the switch fluorescence ratio stood at 0.983 ± 0.014. As for TTTAGGTTGT, the switch fluorescence ratio came to 0.9984 ± 0.0073. Then CCATGGAGGT, with 1.01 ± 0.034; and TTGACGACAC, with 1.67 ± 0.45; and TTAATTACGG, with 1.01 ± 0.017. For the sequence GGGGGGCGAC, the switch fluorescence ratio worked out at 1.02 ± 0.019. As for ATGAGGGGCA, the figure is 0.98 ± 0.026; as for GACGTTCTGT, 1.03 ± 0.063.

TTGCCGGTTT: the switch fluorescence ratio turned out to be 1.05 ± 0.021. With GTGGGCCAGC, the switch fluorescence ratio came to 0.964 ± 0.082.

Take TTAAGGAGTG: the switch fluorescence ratio worked out at 0.95 ± 0.0099. As for AGGGGGTAGA, the figure is 1.05 ± 0.027; as for TATCCGAACG, 1.4467 ± 0.00019; as for TGACCTGGCT, 1.04 ± 0.035. As for CGAGTTGGGG, the switch fluorescence ratio turned out to be 1.01 ± 0.031. Regarding TTTATCAATT, the switch fluorescence ratio was 0.991 ± 0.063.

As for GATTGGTGGC, the switch fluorescence ratio amounted to 1.04 ± 0.049. CTAGTGCTCG: the switch fluorescence ratio stood at 0.971 ± 0.022. Turning to GACTGGTAAT, the switch fluorescence ratio amounted to 1.047 ± 0.0072.

For the sequence TTTATGGGGG, the switch fluorescence ratio turned out to be 0.999 ± 0.034.

As to TGATGTTGTC, the switch fluorescence ratio turned out to be 0.988 ± 0.033. Consider CTGCGGGTGC, for which the switch fluorescence ratio came to 1.31 ± 0.2. For GATTTGGAAG, the switch fluorescence ratio stood at 1.01 ± 0.024. AAAGGTTCTG: the switch fluorescence ratio came to 0.992 ± 0.072.

As to CATCGGGGTC, the switch fluorescence ratio came to 1.07 ± 0.021. GAGAGATTAT: the switch fluorescence ratio was determined as 0.9787 ± 0.002. Take TATCAGCTGA: the switch fluorescence ratio is 0.9974 ± 0.0036. In the case of GTTGATGGTG, the switch fluorescence ratio was 1 ± 0.039. In the case of TAGACTCGGT, the switch fluorescence ratio was determined as 0.993 ± 0.053. With ACGGATGTTG, the switch fluorescence ratio was found to be 1.01 ± 0.059. GACTGTGGCA: the switch fluorescence ratio turned out to be 1.013 ± 0.0021. As for ATATCCCTCG, the switch fluorescence ratio stood at 1.01 ± 0.013. Consider TAAGTTTTCC, for which the switch fluorescence ratio was 1.03 ± 0.032. With CCGATTAATA, the switch fluorescence ratio was found to be 1.34 ± 0.028. Then GGTTTTCGAA, with 1.01 ± 0.042.

Source of the values: the supplement of paper PMC10126150.
